{"source": "patent US20040091985A1", "about": "“NAD phosphite oxidoreductase, a novel catalyst from bacteria for regeneration of NAD(P)H” (priority 2002, published 2004)", "proteins": {"B1": {"name": "PtxD (Stutzerimonas stutzeri) (protein)", "chain": "MLPKLVITHRVHDEILQLLAPHCELMTNQTDSTLTREEILRRCRDAQAMMAFMPDRVDADFLQACPELRVVGCALKGFDNFDVDACTARGVWLTFVPDLLTVPTAELAIGLAVGLGRHLRAADAFVRSGEFQGWQPQFYGTGLDNATVGILGMGAIGLAMADRLQGWGATLQYHEAKALDTQTEQRLGLRQVACSELFASSDFILLALPLNADTQHLVNAELLALVRPGALLVNPCRGSVVDEAAVLAALERGQLGGYAADVFEMEDWARADRPRLIDPALLAHPNTLFTPHIGSAVRAVRLEIERCAAQNIIQVLAGARPINAANRLPKAEPAAC"}}, "substrate": "NC(=O)c1ccc[n+]([C@@H]2O[C@H](COP(=O)([O-])OP(=O)(O)OC[C@H]3O[C@@H](n4cnc5c(N)ncnc54)[C@H](O)[C@@H]3O)[C@@H](O)[C@H]2O)c1", "experiment": "purified protein, by the assay type", "conditions": "pH 7.25, 30.0 °C", "note": "“And” between values parts separate entries of the source, which are not always exact repeats. Identical values can stand only once.", "data": [{"protein": "B1", "values": [{"measurement": "Km", "setting": "other: Table 4, NAP as A, fit to Equilibrium ordered mechanism", "value": 4520, "unit": "µM"}, {"measurement": "Km", "setting": "other: Table 4, NAP as A, fit to Pingpong mechanism", "value": 12800, "unit": "µM"}, {"measurement": "Km", "setting": "other: substrates of PtxD", "value": "54.6 ± 6.7 µM and 50 µM"}]}]}
